In patent publication US20240165252A1, “ANTIBODY-DRUG CONJUGATE AND MEDICAL USE THEREOF” (Shanghai Hansoh Biomedical Co., Ltd., priority 2021, published 2024):

Experiments:
[1] = molecular target: BCMA expressed on cells (HEK-293T cells overexpressing BCMA; NCI-H929 tumor cells) (human) (UniProt Q02223); experiment: cell-based or functional assay
[2] = molecular target: T1, BCMA expressed on cells (HEK-293T cells overexpressing BCMA; NCI-H929 tumor cells) (human, UniProt Q02223 1-184); experiment: flow cytometry on HEK-293T/BCMA cells
T1 construct: whole, on cells; also called HEK-293T/BCMA cells; NCI-H929 cells
T1 sequence (looked up): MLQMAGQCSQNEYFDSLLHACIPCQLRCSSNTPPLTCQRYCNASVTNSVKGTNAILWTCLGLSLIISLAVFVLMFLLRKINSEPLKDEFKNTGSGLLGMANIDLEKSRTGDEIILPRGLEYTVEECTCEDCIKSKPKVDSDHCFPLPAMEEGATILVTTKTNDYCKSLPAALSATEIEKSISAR
Method: (§1) The cultured cells with high BCMA expression (HEK-293T cells overexpressing BCMA; tumor cells expressing BCMA, NCI-H929) were collected. The cell density was adjusted and the cells were plated on a 96-well U-bottomed plate at 1×10⁵ to 2×10⁵ cells per well. The plate was centrifuged at 1200 g for 5 min and the supernatant was removed. 100 μl of gradient diluted antibody solution or mouse immunized serum was added and incubated at 4° C. for 60 min. The plate was centrifuged at 1200 g for 5 min and the supernatant was removed. The cells were washed twice with PBS. A fluorescently labeled secondary antibody (PE-GAH or PE-GAM) was added at 100 μl per well and incubated at 4° C. for 60 min. The plate was centrifuged at 1200 g for 5 min and the supernatant was removed. The cells were washed twice with PBS and then re-suspended in PBS. The signal was detected by using a flow cytometer, and a concentration curve was plotted for result analysis.

[3] = molecular target: T1, BCMA expressed on cells (HEK-293T cells …); experiment: flow cytometry on NCI-H929 cells
Method: as §1

[4] = molecular target: T2, His-tagged extracellular domain of human BCMA (BCMA-His) (human); experiment: indirect ELISA, BCMA His coated on plate
T2 construct: Bought protein; also called BCMA His protein; human BCMA His antigen
T2 chain: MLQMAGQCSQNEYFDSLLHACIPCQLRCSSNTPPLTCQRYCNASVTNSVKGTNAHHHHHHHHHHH
Method: (§2) After washing, the plate 4 times with PBST (pH 7.4 PBS containing 0.05% Tween-20), 3% bovine serum albumin (BSA) blocking solution diluted with PBST was added at 150 μl/well and incubated at room temperature for 1 hour for blocking. After completion of the blocking, the blocking solution was discarded, and the plate was washed 4 times with PBST buffer.
(§3) The antibody to be tested was 10-fold gradient diluted with PBST containing 3% BSA with the initial concentration of 1 μM to obtain 10 dilutions which were added to the microtiter plate at 100 μl/well and incubated at room temperature for 1 hour. After completion of the incubation, the plate was washed 4 times with PBST. HRP-labeled goat-anti-human secondary antibody (Abcam, Cat #ab97225) diluted with PBST containing 3% BSA was added at 100 μl/well and incubated at room temperature for 1 hour. The plate was washed 4 times with PBST, and then TMB chromogenic substrate (Cell Signaling Technology, cat #7004S) was added at 100 μl/well and incubated at room temperature in the dark for 1 minute. The stop solution (Cell Signaling Technology, cat #7002S) was added at 100 μl/well to terminate the reaction. The absorbance value at 450 nm was read with a microplate reader (BioTek, model Synergy H1). The data were analyzed.

[5] = molecular target: T2, His-tagged extracellular domain of …; experiment: indirect ELISA, BCMA-His coated on plate
Method: as §2, §3

[6] = molecular target: T1, BCMA expressed on cells (HEK-293T cells …); experiment: cell-based or functional assay
[7] = molecular target: T1, BCMA expressed on cells (HEK-293T cells …); experiment: cell-based or functional assay; remark: listed apart in the source

## IgG1 iso ADC (y = 4) (antibody)
[1]
  Killing Effect (IC50 nM) NCI-H929: > 133 nM

B1: murine monoclonal antibody M1 (antibody, V domains shown)
VH: QVQLQQSGAELVRPGASVKLSCKALGYSFSDYEMHWVRQTPVHGLEWIGGIHPGSGGSAYNQKFKGKATLTVDKSSSTAYMELSSLTSEDSAVYYCTRLDYGYSWAWFPYWGQGTLVTVSA
VL: EILLTQSPAIIVTSPGEKVTITCSASSSVIYMNWYQQKPGSSPKIWIYGISNLASGVPARFSGSGSGTSFSFTINSMEAEDVATYYCQQRSSYPLTFGAGTKLELK
notes: It is a hybridoma-derived murine antibody, yet the ELISA protocol names a goat-anti-human secondary antibody; also called murine antibody M1
[2]
  EC50: 115 nM
[3]
  EC50: 128 nM
[4]
  EC50: 0.53 nM

B2: humanized anti-BCMA antibody Ab2 (antibody, human IgG1, kappa, V domains shown)
VH: QVQLVQSGAEVKKPGASVKVSCKASGYSFSDYEMHWVRQAPGQGLEWIGGIHPGSGGSAYNQKFKGRVTLTVDKSTSTAYMELSSLRSEDTAVYYCTRLDYGYSWAWFPYWGQGTLVTVSA
VL: EIVLTQSPATLSLSPGERATLSCSASSSVIYMNWYQQKPGQSPKIWIYGISNLASGVPARFSGSGSGTDFTLTISSLEPEDFAVYYCQQRSSYPLTFGGGTKVEIKR
notes: Human IgG1/kappa, expressed in HEK293 cells
[3]
  EC50: 3.5 nM
[5]
  EC50: 0.033 nM
[6]
  Endocytosis efficiency %, 0.5 hour: 36.7%
  Endocytosis efficiency %, 2 hours: 48%

B3: antibody drug conjugate ADC2 (y = 4) (antibody, human IgG1, kappa, V domains shown)
VH: QVQLVQSGAEVKKPGASVKVSCKASGYSFSDYEMHWVRQAPGQGLEWIGGIHPGSGGSAYNQKFKGRVTLTVDKSTSTAYMELSSLRSEDTAVYYCTRLDYGYSWAWFPYWGQGTLVTVSA
VL: EIVLTQSPATLSLSPGERATLSCSASSSVIYMNWYQQKPGQSPKIWIYGISNLASGVPARFSGSGSGTDFTLTISSLEPEDFAVYYCQQRSSYPLTFGGGTKVEIKR
modifications: Linker-drug compound D (exatecan derivative) coupled to Ab2 after TCEP reduction. Average load y = 4 per antibody. Sites not stated.
[7]
  Killing Effect (IC50 nM) NCI-H929: 0.76 nM

B4: humanized anti-BCMA antibody Ab1 (antibody, human IgG1, kappa, V domains shown)
VH: QVQLVQSGAEVKKPGASVKVSCKASGYSFSDYEMHWVRQAPGQGLEWMGGIHPGSGGSAYNQKFKGRVTMTRDTSTSTVYMELSSLRSEDTAVYYCTRLDYGYSWAWFPYWGQGTLVTVSA
VL: EIVLTQSPATLSLSPGERATLSCSASSSVIYMNWYQQKPGQAPRLLIYGISNLASGIPARFSGSGSGTDFTLTISSLEPEDFAVYYCQQRSSYPLTFGGGTKVEIKR
notes: as for B2
[3]
  EC50: 4.6 nM
[5]
  EC50: 0.022 nM
[6]
  Endocytosis efficiency %, 0.5 hour: 36.6%
  Endocytosis efficiency %, 2 hours: 49.5%

B5: humanized anti-BCMA antibody Ab3 (antibody, human IgG1, kappa, V domains shown)
VH: QVQLVQSGAEVKKPGASVKVSCKASGYSFSDYEMHWVRQAPGQGLEWIGGIHPGSGGSAYNQKFKGKATLTVDKSTSTAYMELSSLRSEDTAVYYCTRLDYGYSWAWFPYWGQGTLVTVSA
VL: EILLTQSPATLSLSPGERATLTCSASSSVIYMNWYQQKPGSSPKIWIYGISNLASGVPARFSGSGSGTSFTLTISSLEPEDFAVYYCQQRSSYPLTFGGGTKVEIKR
notes: as for B2
[3]
  EC50: 3.9 nM
[5]
  EC50: 0.034 nM
[6]
  Endocytosis efficiency %, 0.5 hour: 35.5%
  Endocytosis efficiency %, 2 hours: 45.7%
